Among the data in publication PMC4116301 are stoichiometry N and Kd values, retold here.

Assay [1] addresses Xenopus laevis Bonsai CENP-E (Xenopus laevis). Nature of the assay: single-molecule fluorescence brightness and photobleaching steps.
The target of assay [2] is microtubules (tubulin purified from cow brains) (cow) (UniProt Q6B856). The experiment in a line: co-sedimentation.

Substance Xenopus laevis Bonsai CENP-E had a stoichiometry N in assay [1] of 2.
Substance “Xenopus laevis full-length CENP-E (natural protein)” gave a Kd in assay [2] of 0.024 µM.

One may read the stoichiometry N as the number of molecules, sites or subunits per partner or assembly. As a reminder, the Kd is the constant that tells how readily two partners part at equilibrium. Lower therefore signals higher affinity.
